Where “and” joins values, the source holds several entries; their conditions need not be identical. Equal values may be shown once.
Key:
[1] = biological target: rKgp: mature recombinant Kgp catalytic domain with the ABM1 motif (Gly681-Ala710) deleted (Porphyromonas gingivalis W50); assay: enzyme inhibition kinetics
[2] = biological target: rKgp: mature recombinant Kgp catalytic domain with the ABM1 motif (Gly681-Ala710) deleted (Porphyromonas gingivalis W50)
SEC = biological target: the molecule itself; assay: SEC

recombinant Kgp propeptide (thrombin-cleaved; used as DTT-stabilised monomer in the inhibition assays) (from UniProt Q51817 20-228) (domain or fragment)
Ki [1]: 2.01 µM and 2.04 µM

iodoacetylated Kgp propeptide monomer (from UniProt Q51817 20-228) (domain or fragment)
inhibition of rKgp by the iodoacetylated monomer (100 mg/L), substrate DQ-BSA [2]: 28 % inhibition

B1: recombinant Kgp propeptide (thrombin-cleaved; used as DTT-stabilised monomer in the inhibition assays) (domain or fragment)
chain: QSAKIKLDAPTTRTTCTNNSFKQFDASFSFNEVELTKVETKGGTFASVSIPGAFPTGEVGSPEVPAVRKLIAVPVGATPVVRVKSFTEQVYSLNQYGSEKLMPHQPSMSKSDDPEKVPFVYNAAAYARKGFVGQELTQVEMLGTMRGVRIAALTINPVQYDVVANQLKVRNNIEIEVSFQGADEVATQRLYDASFSPYFETAYKQLFNR
stoichiometry N (SEC): 2

— article PMC3677877 (PLoS ONE, 2013)
